Kd data for one molecule are collected here from article PMC3539133.

By Kd is commonly meant the constant that tells how readily two partners part at equilibrium. A lower Kd goes with a tighter complex.

This series concerns the target T1, dADAR dsRBD1 (UniProt Q9NII1 48-140).
T1 sequence: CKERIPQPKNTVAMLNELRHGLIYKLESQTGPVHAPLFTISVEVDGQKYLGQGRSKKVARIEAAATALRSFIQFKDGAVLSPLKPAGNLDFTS
In words: ITC. On the technique in general: ITC needs no label: the signal is the heat of the interaction.

GGUAGUAUAACAAUAUCCGUGUUGUUAUAGUACC (structured_RNA) [GluR-2 R/G upper stem-loop (GluR-2 USL) with GluR-3 tetraloop] came in with a Kd of 400 ± 50 nM.
